# Molecular target: LptB2FG from Shigella flexneri (Shigella flexneri) (UniProt P0A9V4)
substance,measurement,value
LptC from Shigella flexneri (subunit of sfLptB2FGC) (from UniProt P0ADW2 1-191) (natural protein),ATPase activity of purified sfLptB2FGC compared with sfLptB2FG under the same conditions,50 % less
